Results as given in US20110118131A1 (published 2011).

B1: XPA23 heavy chain F35V (Fab, V domains shown)
VH: EVQLLESGGGLVQPGGSLRLSCAASGFTFSKYFMVWVRQAPGKGLEWVSVISPSGGMTRYADSVKGRFTISRDNSKNTLYLQMNSLRAEDTAVYYCARVGYGGNSDYWGQGTLVTVSS
VL: DIQMTQSPSSVSASVGDRLTIICRASQDINRWLAWYQQTPGNAPKLLIHSATSLQSGVPSRFSGSGSGTDFTLTINSLQPEDFATYYCQQADSFPLTFGGGTKVEIK
notes: Fab, periplasmic extract; also called C5A F35V
B2: XPA23 heavy chain K31I (Fab, V domains shown)
VH: EVQLLESGGGLVQPGGSLRLSCAASGFTFSIYFMFWVRQAPGKGLEWVSVISPSGGMTRYADSVKGRFTISRDNSKNTLYLQMNSLRAEDTAVYYCARVGYGGNSDYWGQGTLVTVSS
VL: DIQMTQSPSSVSASVGDRLTIICRASQDINRWLAWYQQTPGNAPKLLIHSATSLQSGVPSRFSGSGSGTDFTLTINSLQPEDFATYYCQQADSFPLTFGGGTKVEIK
notes: Fab, periplasmic extract; also called C5A K31I
B3: XPA23 heavy chain I51G (Fab, V domains shown)
VH: EVQLLESGGGLVQPGGSLRLSCAASGFTFSKYFMFWVRQAPGKGLEWVSVGSPSGGMTRYADSVKGRFTISRDNSKNTLYLQMNSLRAEDTAVYYCARVGYGGNSDYWGQGTLVTVSS
VL: DIQMTQSPSSVSASVGDRLTIICRASQDINRWLAWYQQTPGNAPKLLIHSATSLQSGVPSRFSGSGSGTDFTLTINSLQPEDFATYYCQQADSFPLTFGGGTKVEIK
notes: Fab, periplasmic extract; also called C5A I51G
B4: XPA23 heavy chain G55I (Fab, V domains shown)
VH: EVQLLESGGGLVQPGGSLRLSCAASGFTFSKYFMFWVRQAPGKGLEWVSVISPSIGMTRYADSVKGRFTISRDNSKNTLYLQMNSLRAEDTAVYYCARVGYGGNSDYWGQGTLVTVSS
VL: DIQMTQSPSSVSASVGDRLTIICRASQDINRWLAWYQQTPGNAPKLLIHSATSLQSGVPSRFSGSGSGTDFTLTINSLQPEDFATYYCQQADSFPLTFGGGTKVEIK
notes: Fab, periplasmic extract; also called C5A G55I
B5: XPA23 heavy chain G103A (Fab, V domains shown)
VH: EVQLLESGGGLVQPGGSLRLSCAASGFTFSKYFMFWVRQAPGKGLEWVSVISPSGGMTRYADSVKGRFTISRDNSKNTLYLQMNSLRAEDTAVYYCARVGYGANSDYWGQGTLVTVSS
VL: DIQMTQSPSSVSASVGDRLTIICRASQDINRWLAWYQQTPGNAPKLLIHSATSLQSGVPSRFSGSGSGTDFTLTINSLQPEDFATYYCQQADSFPLTFGGGTKVEIK
notes: Fab, periplasmic extract; also called C5A G103A
B6: XPA23 heavy chain I51L (Fab, V domains shown)
VH: EVQLLESGGGLVQPGGSLRLSCAASGFTFSKYFMFWVRQAPGKGLEWVSVLSPSGGMTRYADSVKGRFTISRDNSKNTLYLQMNSLRAEDTAVYYCARVGYGGNSDYWGQGTLVTVSS
VL: DIQMTQSPSSVSASVGDRLTIICRASQDINRWLAWYQQTPGNAPKLLIHSATSLQSGVPSRFSGSGSGTDFTLTINSLQPEDFATYYCQQADSFPLTFGGGTKVEIK
notes: Fab, periplasmic extract; also called C5A I51L
B7: XPA23 heavy chain G103V (Fab, V domains shown)
VH: EVQLLESGGGLVQPGGSLRLSCAASGFTFSKYFMFWVRQAPGKGLEWVSVISPSGGMTRYADSVKGRFTISRDNSKNTLYLQMNSLRAEDTAVYYCARVGYGVNSDYWGQGTLVTVSS
VL: DIQMTQSPSSVSASVGDRLTIICRASQDINRWLAWYQQTPGNAPKLLIHSATSLQSGVPSRFSGSGSGTDFTLTINSLQPEDFATYYCQQADSFPLTFGGGTKVEIK
notes: Fab, periplasmic extract; also called C5A G103V
B8: XPA23 heavy chain G56P (Fab, V domains shown)
VH: EVQLLESGGGLVQPGGSLRLSCAASGFTFSKYFMFWVRQAPGKGLEWVSVISPSGPMTRYADSVKGRFTISRDNSKNTLYLQMNSLRAEDTAVYYCARVGYGGNSDYWGQGTLVTVSS
VL: DIQMTQSPSSVSASVGDRLTIICRASQDINRWLAWYQQTPGNAPKLLIHSATSLQSGVPSRFSGSGSGTDFTLTINSLQPEDFATYYCQQADSFPLTFGGGTKVEIK
notes: Fab, periplasmic extract; also called C5A G56P
B9: XPA23 heavy chain K31L (Fab, V domains shown)
VH: EVQLLESGGGLVQPGGSLRLSCAASGFTFSLYFMFWVRQAPGKGLEWVSVISPSGGMTRYADSVKGRFTISRDNSKNTLYLQMNSLRAEDTAVYYCARVGYGGNSDYWGQGTLVTVSS
VL: DIQMTQSPSSVSASVGDRLTIICRASQDINRWLAWYQQTPGNAPKLLIHSATSLQSGVPSRFSGSGSGTDFTLTINSLQPEDFATYYCQQADSFPLTFGGGTKVEIK
notes: Fab, periplasmic extract; also called C5A K31L
B10: XPA23 heavy chain I51V (Fab, V domains shown)
VH: EVQLLESGGGLVQPGGSLRLSCAASGFTFSKYFMFWVRQAPGKGLEWVSVVSPSGGMTRYADSVKGRFTISRDNSKNTLYLQMNSLRAEDTAVYYCARVGYGGNSDYWGQGTLVTVSS
VL: DIQMTQSPSSVSASVGDRLTIICRASQDINRWLAWYQQTPGNAPKLLIHSATSLQSGVPSRFSGSGSGTDFTLTINSLQPEDFATYYCQQADSFPLTFGGGTKVEIK
notes: Fab, periplasmic extract; also called C5A I51V
B11: XPA23 heavy chain G56I (Fab, V domains shown)
VH: EVQLLESGGGLVQPGGSLRLSCAASGFTFSKYFMFWVRQAPGKGLEWVSVISPSGIMTRYADSVKGRFTISRDNSKNTLYLQMNSLRAEDTAVYYCARVGYGGNSDYWGQGTLVTVSS
VL: DIQMTQSPSSVSASVGDRLTIICRASQDINRWLAWYQQTPGNAPKLLIHSATSLQSGVPSRFSGSGSGTDFTLTINSLQPEDFATYYCQQADSFPLTFGGGTKVEIK
notes: Fab, periplasmic extract; also called C5A G56I
B12: XPA23 heavy chain G56L (Fab, V domains shown)
VH: EVQLLESGGGLVQPGGSLRLSCAASGFTFSKYFMFWVRQAPGKGLEWVSVISPSGLMTRYADSVKGRFTISRDNSKNTLYLQMNSLRAEDTAVYYCARVGYGGNSDYWGQGTLVTVSS
VL: DIQMTQSPSSVSASVGDRLTIICRASQDINRWLAWYQQTPGNAPKLLIHSATSLQSGVPSRFSGSGSGTDFTLTINSLQPEDFATYYCQQADSFPLTFGGGTKVEIK
notes: Fab, periplasmic extract; also called C5A G56L
B13: XPA23 heavy chain G100T (Fab, V domains shown)
VH: EVQLLESGGGLVQPGGSLRLSCAASGFTFSKYFMFWVRQAPGKGLEWVSVISPSGGMTRYADSVKGRFTISRDNSKNTLYLQMNSLRAEDTAVYYCARVTYGGNSDYWGQGTLVTVSS
VL: DIQMTQSPSSVSASVGDRLTIICRASQDINRWLAWYQQTPGNAPKLLIHSATSLQSGVPSRFSGSGSGTDFTLTINSLQPEDFATYYCQQADSFPLTFGGGTKVEIK
notes: Fab, periplasmic extract; also called C5A G100T
B14: XPA23 heavy chain M57A (Fab, V domains shown)
VH: EVQLLESGGGLVQPGGSLRLSCAASGFTFSKYFMFWVRQAPGKGLEWVSVISPSGGATRYADSVKGRFTISRDNSKNTLYLQMNSLRAEDTAVYYCARVGYGGNSDYWGQGTLVTVSS
VL: DIQMTQSPSSVSASVGDRLTIICRASQDINRWLAWYQQTPGNAPKLLIHSATSLQSGVPSRFSGSGSGTDFTLTINSLQPEDFATYYCQQADSFPLTFGGGTKVEIK
notes: Fab, periplasmic extract; also called C5A M57A
B15: XPA23 heavy chain K31V (Fab, V domains shown)
VH: EVQLLESGGGLVQPGGSLRLSCAASGFTFSVYFMFWVRQAPGKGLEWVSVISPSGGMTRYADSVKGRFTISRDNSKNTLYLQMNSLRAEDTAVYYCARVGYGGNSDYWGQGTLVTVSS
VL: DIQMTQSPSSVSASVGDRLTIICRASQDINRWLAWYQQTPGNAPKLLIHSATSLQSGVPSRFSGSGSGTDFTLTINSLQPEDFATYYCQQADSFPLTFGGGTKVEIK
notes: Fab, periplasmic extract; also called C5A K31V
B16: XPA23 heavy chain I51A (Fab, V domains shown)
VH: EVQLLESGGGLVQPGGSLRLSCAASGFTFSKYFMFWVRQAPGKGLEWVSVASPSGGMTRYADSVKGRFTISRDNSKNTLYLQMNSLRAEDTAVYYCARVGYGGNSDYWGQGTLVTVSS
VL: DIQMTQSPSSVSASVGDRLTIICRASQDINRWLAWYQQTPGNAPKLLIHSATSLQSGVPSRFSGSGSGTDFTLTINSLQPEDFATYYCQQADSFPLTFGGGTKVEIK
notes: Fab, periplasmic extract; also called C5A I51A
B17: XPA23 heavy chain G56A (Fab, V domains shown)
VH: EVQLLESGGGLVQPGGSLRLSCAASGFTFSKYFMFWVRQAPGKGLEWVSVISPSGAMTRYADSVKGRFTISRDNSKNTLYLQMNSLRAEDTAVYYCARVGYGGNSDYWGQGTLVTVSS
VL: DIQMTQSPSSVSASVGDRLTIICRASQDINRWLAWYQQTPGNAPKLLIHSATSLQSGVPSRFSGSGSGTDFTLTINSLQPEDFATYYCQQADSFPLTFGGGTKVEIK
notes: Fab, periplasmic extract; also called C5A G56A
B18: XPA23 heavy chain M57I (Fab, V domains shown)
VH: EVQLLESGGGLVQPGGSLRLSCAASGFTFSKYFMFWVRQAPGKGLEWVSVISPSGGITRYADSVKGRFTISRDNSKNTLYLQMNSLRAEDTAVYYCARVGYGGNSDYWGQGTLVTVSS
VL: DIQMTQSPSSVSASVGDRLTIICRASQDINRWLAWYQQTPGNAPKLLIHSATSLQSGVPSRFSGSGSGTDFTLTINSLQPEDFATYYCQQADSFPLTFGGGTKVEIK
notes: Fab, periplasmic extract; also called C5A M57I
B19: XPA23 heavy chain I51T (Fab, V domains shown)
VH: EVQLLESGGGLVQPGGSLRLSCAASGFTFSKYFMFWVRQAPGKGLEWVSVTSPSGGMTRYADSVKGRFTISRDNSKNTLYLQMNSLRAEDTAVYYCARVGYGGNSDYWGQGTLVTVSS
VL: DIQMTQSPSSVSASVGDRLTIICRASQDINRWLAWYQQTPGNAPKLLIHSATSLQSGVPSRFSGSGSGTDFTLTINSLQPEDFATYYCQQADSFPLTFGGGTKVEIK
notes: Fab, periplasmic extract; also called C5A I51T
B20: XPA23 heavy chain G55L (Fab, V domains shown)
VH: EVQLLESGGGLVQPGGSLRLSCAASGFTFSKYFMFWVRQAPGKGLEWVSVISPSLGMTRYADSVKGRFTISRDNSKNTLYLQMNSLRAEDTAVYYCARVGYGGNSDYWGQGTLVTVSS
VL: DIQMTQSPSSVSASVGDRLTIICRASQDINRWLAWYQQTPGNAPKLLIHSATSLQSGVPSRFSGSGSGTDFTLTINSLQPEDFATYYCQQADSFPLTFGGGTKVEIK
notes: Fab, periplasmic extract; also called C5A G55L
B21: XPA23 heavy chain G56T (Fab, V domains shown)
VH: EVQLLESGGGLVQPGGSLRLSCAASGFTFSKYFMFWVRQAPGKGLEWVSVISPSGTMTRYADSVKGRFTISRDNSKNTLYLQMNSLRAEDTAVYYCARVGYGGNSDYWGQGTLVTVSS
VL: DIQMTQSPSSVSASVGDRLTIICRASQDINRWLAWYQQTPGNAPKLLIHSATSLQSGVPSRFSGSGSGTDFTLTINSLQPEDFATYYCQQADSFPLTFGGGTKVEIK
notes: Fab, periplasmic extract; also called C5A G56T

Biological target: T1, IL-1β (UniProt P01584 117-269)
T1 construct: Antigen of XPA23
Assay: Biacore, Fab periplasmic extract

Q: B1 was tested. Which “fold difference in affinity against the original” value (“fold difference in affinity” for short) did it give?
A: 0.89 fold

Q: With B2 as the binder, how does the “fold difference in affinity” value read?
A: 0.74 fold

Q: B3 was tested. Which “fold difference in affinity” value did it give?
A: 0.94 fold

Q: With B4 as the binder, how does the “fold difference in affinity” value read?
A: 0.86 fold

Q: For B5, which “fold difference in affinity” value is on record?
A: 0.03 fold

Q: With B6 as the binder, how does the “fold difference in affinity” value read?
A: 0.79 fold

Q: B7 was tested. Which “fold difference in affinity” value did it give?
A: 2.56 fold

Q: With B8 as the binder, how does the “fold difference in affinity” value read?
A: 0.85 fold

Q: Which “fold difference in affinity” value does the source give for B9 here?
A: 1.08 fold

Q: B10 was tested. Which “fold difference in affinity” value did it give?
A: 0.99 fold

Q: For B11, which “fold difference in affinity” value is on record?
A: 1.71 fold

Q: How did the “fold difference in affinity” value turn out when B12 was run?
A: 1.41 fold

Q: How did the “fold difference in affinity” value turn out when B13 was run?
A: 0.12 fold

Q: B14 was tested. Which “fold difference in affinity” value did it give?
A: 0.03 fold

Q: For B15, which “fold difference in affinity” value is on record?
A: 0.81 fold

Q: With B16 as the binder, how does the “fold difference in affinity” value read?
A: 1.04 fold

Q: How did the “fold difference in affinity” value turn out when B17 was run?
A: 1.21 fold

Q: How did the “fold difference in affinity” value turn out when B18 was run?
A: 0.03 fold

Q: Which “fold difference in affinity” value does the source give for B19 here?
A: 0.86 fold

Q: How did the “fold difference in affinity” value turn out when B20 was run?
A: 0.08 fold

Q: For B21, which “fold difference in affinity” value is on record?
A: 1.11 fold
